Data published in patent US20140120095A1 (Boehringer Ingelheim, published 2014).
Blank lines part the entries; values can stand above or below the binder they belong to.

What was measured:
[1] = biological target: human DLL4 overexpressed on cells (human, UniProt Q9NR61 27-685); test: cell-based or functional assay
hDLL4.5 = hDLL4.5 (human); test: Biacore, VHH on chip, 200 nM DLL4 sample injected
recombinant human DLL4 = biological target: T1, recombinant human DLL4 (human, UniProt Q9NR61 25-522); test: Biacore, VHH on chip, 200 nM DLL4 sample injected
T1 construct: also called rhDLL4; hDLL4

mDLL4.10 = mDLL4.10 (mouse); test: Biacore, VHH on chip, 200 nM DLL4 sample injected
mDLL4.12 = mDLL4.12 (mouse); test: Biacore, VHH on chip, 200 nM DLL4 sample injected
hDLL4.6 = hDLL4.6 (human); test: Biacore, VHH on chip, 200 nM DLL4 sample injected
mDLL4.11 = mDLL4.11 (mouse); test: Biacore, VHH on chip, 200 nM DLL4 sample injected
hDLL4.3 = hDLL4.3 (human); test: Biacore, VHH on chip, 200 nM DLL4 sample injected
recombinant mouse DLL4 [2] = biological target: T2, recombinant mouse DLL4 (mouse, UniProt Q9JI71 27-532); test: Biacore, VHH on chip, 200 nM DLL4 sample injected
T2 construct: extracellular domain; also called rmDLL4; mDLL4
T2 sequence (Q9JI71 27-532): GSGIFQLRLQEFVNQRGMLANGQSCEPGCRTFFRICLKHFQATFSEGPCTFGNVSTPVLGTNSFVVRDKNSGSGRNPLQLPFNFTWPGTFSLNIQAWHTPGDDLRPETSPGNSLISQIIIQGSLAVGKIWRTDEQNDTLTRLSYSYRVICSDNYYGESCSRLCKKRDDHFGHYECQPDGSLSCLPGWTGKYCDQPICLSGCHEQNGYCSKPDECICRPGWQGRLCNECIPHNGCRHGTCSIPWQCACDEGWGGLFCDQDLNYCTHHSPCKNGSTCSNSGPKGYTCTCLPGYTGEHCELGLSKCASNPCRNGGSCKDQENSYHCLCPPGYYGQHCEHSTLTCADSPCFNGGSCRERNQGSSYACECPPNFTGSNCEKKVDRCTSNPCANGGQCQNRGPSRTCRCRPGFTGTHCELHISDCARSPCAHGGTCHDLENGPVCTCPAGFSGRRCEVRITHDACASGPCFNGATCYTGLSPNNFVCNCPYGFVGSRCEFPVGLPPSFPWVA

[3] = biological target: T3, mouse DLL4 overexpressed on cells (mouse, UniProt Q9JI71 27-686); test: competitive FMAT, hNotch1-Fc on CHO-mDLL4
T3 construct: whole, on cells; also called CHO-mDLL4; CHO-mDII4
T3 sequence (Q9JI71 27-686): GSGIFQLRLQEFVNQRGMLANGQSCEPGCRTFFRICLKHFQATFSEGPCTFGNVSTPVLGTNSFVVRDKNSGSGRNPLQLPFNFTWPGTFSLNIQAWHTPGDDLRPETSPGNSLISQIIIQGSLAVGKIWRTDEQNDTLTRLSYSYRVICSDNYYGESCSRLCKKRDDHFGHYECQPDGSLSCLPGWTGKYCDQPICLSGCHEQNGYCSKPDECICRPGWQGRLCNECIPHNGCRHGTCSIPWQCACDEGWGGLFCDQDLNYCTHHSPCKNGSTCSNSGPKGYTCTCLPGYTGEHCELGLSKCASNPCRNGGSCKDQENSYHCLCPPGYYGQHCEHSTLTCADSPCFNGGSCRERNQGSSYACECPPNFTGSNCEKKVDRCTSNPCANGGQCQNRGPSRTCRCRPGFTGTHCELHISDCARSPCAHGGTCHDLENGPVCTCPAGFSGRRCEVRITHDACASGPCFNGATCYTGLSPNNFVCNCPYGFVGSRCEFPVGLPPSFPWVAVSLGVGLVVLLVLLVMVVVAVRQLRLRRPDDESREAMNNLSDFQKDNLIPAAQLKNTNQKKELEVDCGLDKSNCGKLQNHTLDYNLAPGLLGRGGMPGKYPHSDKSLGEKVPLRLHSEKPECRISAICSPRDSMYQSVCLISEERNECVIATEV

recombinant mouse DLL4 [4] = biological target: T2, recombinant mouse DLL4; test: binding ELISA, coated rmDLL4
Experimental: In order to determine cross-reactivity to mouse DII4 a binding ELISA is performed. […] Wells are blocked with a casein solution (1% in PBS). VHHs are applied as dilution series and binding is detected using a mouse anti-myc (Roche) and an anti-mouse-AP conjugate (Sigma, St Louis, Mo., USA) (FIG. 7 A-H). As reference, binding to human DII4 is measured.

[5] = biological target: T4, recombinant human DLL4 (C-terminally His-tagged extracellular domain, R&D Systems) (human, UniProt Q9NR61 25-522, biotinylated in the competition ELISA); test: ProteOn off-rate screen, periplasmic extract, coated human DLL4
T4 construct: also called rhDLL4; hDLL4
Experimental: (§1) In a first cycle, amino acid substitutions are introduced randomly in both framework (FW) and complementary determining regions (CDR) using the error-prone PCR method. […] After a polish step, PCR products are inserted via unique restriction sites into a vector designed to facilitate phage display of the VHH library. Consecutive rounds of in-solution selections are performed using decreasing concentrations of biotinylated recombinant human DLL4 (biot-rhDLL4) and trypsin elutions. Affinity-driven selections in a third round using cold rhDLL4 (at least 100× excess over biot-rhDLL4) are also performed. No selections on murine DLL4 are included as (conservation of) cross-reactivity is assessed at the screening level. Individual mutants are produced as recombinant protein using an expression vector derived from pUC119, which contains the LacZ promoter, a resistance gene for ampicillin, a multiple cloning site and an ompA leader sequence (pAX50). E. coliTG1 cells are transformed with the expression vector library and plated on agar plates (LB+Amp+2% glucose). Single colonies are picked from the agar plates and grown in 1 mL 96-deep-well plates. VHH expression is induced by adding IPTG (1 mM). Periplasmic extracts (in a volume of ˜80 uL) are prepared according to standard methods and screened for binding to recombinant human and mouse DII4 in a ProteOn (BioRad, Hercules, Calif., USA) off-rate assay. In brief, a GLC ProteOn Sensor chip is coated with recombinant human DII4 on the “ligand channels” L2 and L4 (with L1/L3 as reference channel), while “ligand channels” […] is coated with mouse DII4. Periplasmic extract of affinity-matured clones is diluted 1/10 and injected across the “analyte channels” A1-A6. An average off-rate is calculated of the wild type clones present in the plate and served as a reference to calculate off-rate improvements.

human Jagged-1 (Alexis) = biological target: T5, human Jagged-1 (Alexis) (human, UniProt P78504 34-1067, limits assumed); test: binding ELISA on coated human Jagged-1 (Example 5.8, Example 7), OD 405 nm
T5 construct: also called hJag-1; hJAG1

[6] = biological target: T6, recombinant mouse DLL4 (C-terminally His-tagged extracellular domain, R&D Systems) (mouse, UniProt Q9JI71 27-532); test: ProteOn off-rate screen, periplasmic extract, coated mouse DLL4
T6 construct: extracellular domain; also called rmDLL4; mDLL4
T6 sequence (Q9JI71 27-532): as the sequence (Q9JI71 27-532) above
Experimental: as §1

[7] = biological target: T4, recombinant human DLL4 (C-terminally …); test: binding ELISA on recombinant human DLL4, OD 450 nm
human DLL1 (Alexis) = biological target: T7, human DLL1 (Alexis) (human, UniProt O00548 18-545, limits assumed); test: binding ELISA on coated human DLL1 (Example 5.8, Example 7), OD 450 nm
T7 construct: also called hDLL1
T7 sequence (looked up): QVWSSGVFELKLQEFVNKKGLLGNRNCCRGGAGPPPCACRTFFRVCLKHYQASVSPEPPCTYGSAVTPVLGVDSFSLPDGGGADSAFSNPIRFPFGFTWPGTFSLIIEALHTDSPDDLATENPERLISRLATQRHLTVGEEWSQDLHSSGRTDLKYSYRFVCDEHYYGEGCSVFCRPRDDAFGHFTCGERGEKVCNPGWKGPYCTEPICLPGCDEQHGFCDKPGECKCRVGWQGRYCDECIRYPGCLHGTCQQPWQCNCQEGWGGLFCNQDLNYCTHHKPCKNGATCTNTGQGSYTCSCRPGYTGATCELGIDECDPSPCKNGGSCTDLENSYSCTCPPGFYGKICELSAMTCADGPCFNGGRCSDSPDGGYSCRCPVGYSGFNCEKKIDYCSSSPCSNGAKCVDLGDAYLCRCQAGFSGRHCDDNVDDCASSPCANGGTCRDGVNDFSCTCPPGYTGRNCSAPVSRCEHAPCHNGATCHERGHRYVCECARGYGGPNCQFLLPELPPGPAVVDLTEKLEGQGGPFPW

B1: DLLBII101G08 (VHH)
VHH: EVQLVESGGGLVQAGGSLRLSCAASGRTFSSYAMAWFRQAPGKEREFVAAIRWSGGTAYYADSVQGRFTISRDNAKNTVYLQMNSLKPEDTAVYYCANRAADTRLGPYEYDYWGQGTQVTVSS
notes: also called 101G8; DLLBII101G8
IC50, DLL4/Notch1 reporter assay [1]: 2760 nM
Binding (RU) (hDLL4.5): 266 RU
koff (hDLL4.5): 0.00219 s⁻¹
Binding (RU) (recombinant human DLL4): 373 RU
koff (recombinant human DLL4): 0.002 s⁻¹
Binding (RU) (mDLL4.10): 189 RU
koff (mDLL4.10): 0.00514 s⁻¹
Binding (RU) (mDLL4.12): 244 RU
koff (mDLL4.12): 0.00452 s⁻¹
Binding (RU) (hDLL4.6): 229 RU
koff (hDLL4.6): 0.0022 s⁻¹
Binding (RU) (mDLL4.11): 210 RU
koff (mDLL4.11): 0.00616 s⁻¹
Binding (RU) (hDLL4.3): 198 RU
koff (hDLL4.3): 0.00465 s⁻¹
Binding (RU) (recombinant mouse DLL4 [2]): 502 RU
koff (recombinant mouse DLL4 [2]): 0.006 s⁻¹
IC50 [3]: 92.1 nM
EC50 (recombinant mouse DLL4 [4]): 53.9 nM

B2: DLLBII101G08 (VHH, not shown: small tags and cut ends)
VHH: EVQLVESGGGLVQAGGSLRLSCAASGRTFSSYAMAWFRQAPGKEREFVAAIRWSGGTAYYADSVQGRFTISRDNAKNTVYLQMNSLKPEDTAVYYCANRAADTRLGPYEYDYWGQGTQVTVSS
notes: parent VHH; also called 101G08 (wt); 101G8
fold (off-rate vs DLLBII101G08) [5]: 1 fold
koff [5]: 0.0022 s⁻¹
binding result (human Jagged-1 (Alexis)): no binding (tested: log[M] -6.1 (about 8e-7 M))
fold (off-rate vs DLLBII101G08) [6]: 1 fold
koff [6]: 0.0067 s⁻¹
EC50 (read off the curve) [7]: ~4 nM

B6: DLLBII115A05 (VHH)
VHH: EVQLVESGGGLVQPGGSLRLSCAASGFTFGSYDMSWVRRSPGKGPEWVSSINSGGGSTYYADFVKGRFTISRDNAKNTLYLQMNSLKPEDTAVYYCAADRYIRARQGDYWGAYEYDYWGQGTQVTVSS
notes: also called 115A5; DLLBII115A5
IC50, DLL4/Notch1 reporter assay [1]: 1740 nM
Binding (RU) (hDLL4.5): 162 RU
koff (hDLL4.5): 0.0042 s⁻¹
Binding (RU) (recombinant human DLL4): 324 RU
koff (recombinant human DLL4): 0.0035 s⁻¹
Binding (RU) (mDLL4.10): 121 RU
koff (mDLL4.10): 0.0038 s⁻¹
Binding (RU) (mDLL4.12): 152 RU
koff (mDLL4.12): 0.0031 s⁻¹
Binding (RU) (hDLL4.6): 152 RU
koff (hDLL4.6): 0.0041 s⁻¹
Binding (RU) (mDLL4.11): 121 RU
koff (mDLL4.11): 0.0066 s⁻¹
Binding (RU) (hDLL4.3): 137 RU
koff (hDLL4.3): 0.0035 s⁻¹
Binding (RU) (recombinant mouse DLL4 [2]): 344 RU
koff (recombinant mouse DLL4 [2]): 0.0065 s⁻¹
IC50 [3]: 43 nM
EC50 (recombinant mouse DLL4 [4]): 33.4 nM

B7: DLLBII136C07 (VHH, not shown: small tags and cut ends)
VHH: EVQLVESGGGLVQPGGSLRLSCAASGFTFGSYDMSWVRRSPGKGPEWVSSINSGGGSTYYADYVKGRFTISRDNAKNTLYLQMNSLKPEDTAVYYCAADRYIWARQGEYWGAYEYDYWGQGTQVTVSS
binding result (human DLL1 (Alexis)): no binding (tested: log[M] -6.1 (about 8e-7 M))

B8: DLLBII133A09 (VHH, not shown: small tags and cut ends)
VHH: EVQLVESGGGLVQPGGSLRLSCAASGFTFGSYDMSWVRRSPGKGPEWVSAINSGGGSTYYADYVKGRFTISRDNAKNTLYLQMNSLKPEDTAVYYCAADRYIWARQGEYWGAYAYDYWGQGTQVTVSS
binding result (human DLL1 (Alexis)): no binding (tested: log[M] -6.1 (about 8e-7 M))

B9: DLLBII133G05 (VHH, not shown: small tags and cut ends)
VHH: EVQLVESGGGLVQPGGSLRLSCAASGFTFGSYDMSWVRRSPGKGPEWVSAINSGGGSTYYTDYVKGRFTISRDNAKNTLYLQMNSLKPEDTAVYYCAADRYIWARQGEYWGAYAYDYWGQGTQVTVSS
binding result (human DLL1 (Alexis)): no binding (tested: log[M] -6.1 (about 8e-7 M))

B10: DLLBII015 (VHH, not shown: small tags and cut ends)
VHH: EVQLVESGGGLVQPGGSLRLSCAASGFTIGSYDMSWVRRSPGKGPEWVSAINSGGGSTYYADYVKGRFTISRDNAKNTLYLQMNSLKPEDTAVYYCAADRYIWARQGEYWGAYAYDYWGQGTQVTVSS
binding result (human DLL1 (Alexis)): no binding (tested: log[M] -6.1 (about 8e-7 M))

B11: DLLBII56A09 (VHH)
VHH: EVQLVESGGGLVQPGGSLRLSCAASGFTFDDYAIGWFRQAPGKEPEGISCISSSGGITYYADSVKGRFTTSRDNAKNTVYLQMNSLKPEDTAVYYCATPGIAACRGIHYTGQGTQVTVSS
notes: also called 56A9; DLLBII56A9
IC50, DLL4/Notch1 reporter assay [1]: 540 nM
Binding (RU) (hDLL4.5): 143 RU
koff (hDLL4.5): 0.0012 s⁻¹
Binding (RU) (recombinant human DLL4): 281 RU
koff (recombinant human DLL4): 0.00095 s⁻¹
Binding (RU) (mDLL4.10): 141 RU
koff (mDLL4.10): 0.0011 s⁻¹
Binding (RU) (mDLL4.12): 161 RU
koff (mDLL4.12): 0.0013 s⁻¹
Binding (RU) (hDLL4.6): 136 RU
koff (hDLL4.6): 0.0011 s⁻¹
Binding (RU) (mDLL4.11): 132 RU
koff (mDLL4.11): 0.0016 s⁻¹
Binding (RU) (hDLL4.3): 125 RU
koff (hDLL4.3): 0.00074 s⁻¹
Binding (RU) (recombinant mouse DLL4 [2]): 389 RU
koff (recombinant mouse DLL4 [2]): 0.0019 s⁻¹
IC50 [3]: 15 nM
EC50 (recombinant mouse DLL4 [4]): 6.3 nM

Second part, led by results:

fold (off-rate vs DLLBII101G08) [5]: 28 fold
koff [5]: 8e-05 s⁻¹
fold (off-rate vs DLLBII101G08) [6]: 26 fold
koff [6]: 0.00025 s⁻¹
EC50 (read off the curve) [7]: ~0.7 nM
B3: DLLBII129E11 (VHH, not shown: small tags and cut ends)
VHH: EVQLVESGGGLVQAGGSLRLSCAASGRTFSSYAMAWYRQAPGKEREYVAAIRWSGGTAYYADSVQGRFTISRDNAKNTVYLQMNSLKPEDTAVYYCANRAPDTRLRPYLYDYWGQGTQVTVSS
binding result (human Jagged-1 (Alexis)): no binding (tested: log[M] -6.1 (about 8e-7 M))

fold (off-rate vs DLLBII101G08) [5]: 38 fold
koff [5]: 5.9e-05 s⁻¹
fold (off-rate vs DLLBII101G08) [6]: 35 fold
koff [6]: 0.00019 s⁻¹
EC50 (read off the curve) [7]: ~0.7 nM
B4: DLLBII129D08 (VHH, not shown: small tags and cut ends)
VHH: EVQLVESGGGLVQAGGSLRLSCAASGRTFSSYAMAWYRQAPGKEREYVAAIRWSGGTAYYADSVQGRFTISRDNAKNTVYLQMNSLKPEDTAVYYCANRAPDTRLEPYLYDYWGQGTQVTVSS
binding result (human Jagged-1 (Alexis)): no binding (tested: log[M] -6.1 (about 8e-7 M))

fold (off-rate vs DLLBII101G08) [5]: 24 fold
koff [5]: 9.3e-05 s⁻¹
fold (off-rate vs DLLBII101G08) [6]: 20 fold
koff [6]: 0.00034 s⁻¹
EC50 (read off the curve) [7]: ~0.7 nM
B5: DLLBII129B05 (VHH, not shown: small tags and cut ends)
VHH: EVQLVESGGGLVQAGGSLRLSCAASGRTFSSYAMAWYRQAPGKEREYVAAIRWSGGTAYYADSVQGRFTISRDNAKNTVYLQMNSLKPEDTAVYYCANRAPDTRLAPYEYDHWGQGTQVTVSS
binding result (human Jagged-1 (Alexis)): no binding (tested: log[M] -6.1 (about 8e-7 M))
